In test [1] the target is chCALHM1 hCALHM2 chimera (chicken | human) (UniProt Q9HA72). In words: cryo-EM structure.
In a further test the target is chicken CALHM1 (chicken). Nature of the test: cryo-EM structure.

What is called stoichiometry N is the number of molecules, sites or subunits per partner or assembly.

In test [1], “chCALHM1 hCALHM2 chimera (from UniProt Q9HA72 205-323)” returned a stoichiometry N of 11.

In the test with chicken CALHM1 (chicken), chicken CALHM1 (natural protein) registered a stoichiometry N of 8.

(Values after article PMC7015811.)
